T1: Methanocaldococcus jannaschii RecJ2 (MJ0831) (Methanocaldococcus jannaschii (strain …, UniProt Q58241))
T1 chain: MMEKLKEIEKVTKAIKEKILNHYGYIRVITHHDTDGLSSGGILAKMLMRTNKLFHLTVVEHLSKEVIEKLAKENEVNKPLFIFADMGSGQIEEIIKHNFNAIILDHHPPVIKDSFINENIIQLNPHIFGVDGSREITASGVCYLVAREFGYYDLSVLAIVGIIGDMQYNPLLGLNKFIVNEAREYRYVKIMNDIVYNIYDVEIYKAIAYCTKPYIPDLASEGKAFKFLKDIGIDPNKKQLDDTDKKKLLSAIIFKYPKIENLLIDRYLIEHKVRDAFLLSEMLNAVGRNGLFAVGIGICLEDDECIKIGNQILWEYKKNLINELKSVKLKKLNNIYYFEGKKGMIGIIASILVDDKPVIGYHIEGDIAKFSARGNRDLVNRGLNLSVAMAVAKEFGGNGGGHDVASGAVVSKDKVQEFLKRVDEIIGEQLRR


Columns and labels:
[1] = biological target: T1, Methanocaldococcus jannaschii RecJ2 …; assay: Ni-NTA pulldown (co-purification)
[2] = biological target: T1, Methanocaldococcus jannaschii RecJ2 …; assay: gel filtration (Superdex 200); MST also negative

binding result [1]	binding result [2]	Binder
no binding		Methanocaldococcus jannaschii GINS (MJ0248), 6×His tag and sumo domain removed (protein) MRVFIIIIYFRCFSKDHKPYFVITMYESLKNYFFEEIKNDKLLKLPDDFYDDIREYIKNIKDDIELERVKYYFKELRKLRIYKALYLDNERENLLPEELNIIHAIENIVVELKIEETPEFKKPTEIDTPKPIYTINDIDVVKVDKNFPPFTDGTFIYDLNKNDVLSLDRKISHILEKHRIISRIGESYENPEES
	no binding	Methanocaldococcus jannaschii GINS (MJ0248), tag state not stated (protein) MRVFIIIIYFRCFSKDHKPYFVITMYESLKNYFFEEIKNDKLLKLPDDFYDDIREYIKNIKDDIELERVKYYFKELRKLRIYKALYLDNERENLLPEELNIIHAIENIVVELKIEETPEFKKPTEIDTPKPIYTINDIDVVKVDKNFPPFTDGTFIYDLNKNDVLSLDRKISHILEKHRIISRIGESYENPEES
